In patent US9958461B2, “Detection of protein to protein interactions” (THE GOVERNING COUNCIL OF THE UNIVERSITY OF TORONTO, priority 2013, dated 2018):

Experiments:
EGFR-Wt [1] = molecular target: T1, EGFR-Wt (Homo sapiens, UniProt P00533); experiment: MaMTH EGFR-interactor screen, lentiviral preys against EGFR-wildtype bait (interaction score); assay type: cell-based; conditions: MaMTH interaction score of prey with EGFR-Wt bait, mean
T1 construct: with the advantage of testing full-length integral membrane proteins; (GGGGS)2 linker-Cub (human ubiquitin aa 35-76)-GAL4(1-147)-mNFkB(364-550) (C); expressed in transfected cells
Method in brief: (§1)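 Interaction score is the luciferase fold-change versus averaged negative controls (Fabp5, Pex19, Pex7, GABBR2), with >1 called interacting. Luciferase was measured 24 h after triplicate bait transfection. This followed single-copy prey transduction (MOI ~0.3-0.4) of GAL4UAS-luciferase HEK293T cells and ≥48 h puromycin selection.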

EGFR-Wt [2] = experiment: as above; assay type: cell-based, human; conditions: ratio of EGFR-Wt mean to EGFR-L858R mean interaction score
Method in brief: as §1

EGFR-L858R = molecular target: T2, EGFR-L858R (Homo sapiens, UniProt P00533, L858R); experiment: MaMTH EGFR-interactor screen, lentiviral preys against EGFR-L858R bait (interaction score); assay type: cell-based; conditions: MaMTH interaction score of prey with EGFR-L858R bait
T2 construct: with the advantage of testing full-length integral membrane proteins; (GGGGS)2 linker-Cub (human ubiquitin aa 35-76)-GAL4(1-147)-mNFkB(364-550) (C); expressed in transfected cells
Method in brief: as §1

Molecule | EGFR-Wt mean (EGFR-Wt [1]) | Wt/L858R (EGFR-Wt [2]) | EGFR-L858R mean (EGFR-L858R)
SHC4 (protein, UniProt Q6S5L8 1-630, looked up) SHC-transforming protein 4: MRERGQDSLAGLVLYVGLFGHPGMLHRAKYSRFRNESITSLDEGSSGGSVGNKGSPQPPHPALAPHLPTEDATLPSQESPTPLCTLIPRMASMKLANPATLLSLKNFCLGTKEVPRLKLQESRDPGSSGPSSPETSLSRSGTAPPPQQDLVGHRATALTPDSCPLPGPGEPTLRSRQDRHFLQHLLGMGMNYCVRYMGCVEVLQSMRSLDFGMRTQVTREAISRLCEAVPGANGAIKKRKPPVKFLSTVLGKSNLQFSGMNIKLTISTCSLTLMNLDNQQIIANHHMQSISFASGGDPDTTDYVAYVAKDPVNQRACHILECHNGMAQDVISTIGQAFELRFKQYLKNPSLNTSCESEEVHIDSHAEEREDHEYYNEIPGKQPPVGGVSDMRIKVQATEQMAYCPIQCEKLCYLPGNSKCSSVYENCLEQSRAIGNVHPRGVQSQRDTSLLKHTCRVDLFDDPCYINTQALQSTPGSAGNQRSAQPLGSPWHCGKAPETVQPGATAQPASSHSLPHIKQQLWSEECYHGKLSRKAAESLLVKDGDFLVRESATSPGQYVLSGLQGGQAKHLLLVDPEGKVRTKDHVFDNVGHLIRYHMDNSLPIISSGSEVSLKQPVRKDNNPALLHSNK | 5.31 | 0.47 | 11.39
HSPA4 (protein, UniProt P34932 1-840, looked up) Heat shock 70 kDa protein 4: MSVVGIDLGFQSCYVAVARAGGIETIANEYSDRCTPACISFGPKNRSIGAAAKSQVISNAKNTVQGFKRFHGRAFSDPFVEAEKSNLAYDIVQLPTGLTGIKVTYMEEERNFTTEQVTAMLLSKLKETAESVLKKPVVDCVVSVPCFYTDAERRSVMDATQIAGLNCLRLMNETTAVALAYGIYKQDLPALEEKPRNVVFVDMGHSAYQVSVCAFNRGKLKVLATAFDTTLGGRKFDEVLVNHFCEEFGKKYKLDIKSKIRALLRLSQECEKLKKLMSANASDLPLSIECFMNDVDVSGTMNRGKFLEMCNDLLARVEPPLRSVLEQTKLKKEDIYAVEIVGGATRIPAVKEKISKFFGKELSTTLNADEAVTRGCALQCAILSPAFKVREFSITDVVPYPISLRWNSPAEEGSSDCEVFSKNHAAPFSKVLTFYRKEPFTLEAYYSSPQDLPYPDPAIAQFSVQKVTPQSDGSSSKVKVKVRVNVHGIFSVSSASLVEVHKSEENEEPMETDQNAKEEEKMQVDQEEPHVEEQQQQTPAENKAESEEMETSQAGSKDKKMDQPPQAKKAKVKTSTVDLPIENQLLWQIDREMLNLYIENEGKMIMQDKLEKERNDAKNAVEEYVYEMRDKLSGEYEKFVSEDDRNSFTLKLEDTENWLYEDGEDQPKQVYVDKLAELKNLGQPIKIRFQESEERPKLFEELGKQIQQYMKIISSFKNKEDQYDHLDAADMTKVEKSTNEAMEWMNNKLNLQNKQSLTMDPVVKSKEIEAKIKELTSTCSPIISKPKPKVEPPKEEQKNAEQNGPVDGQGDNPGPQAAEQGTDTAVPSDSDKKLPEMDID | 1.13 | 0.46 | 2.48
TNS3 (protein, UniProt Q68CZ2 1-1445, looked up) Tensin-3: MEEGHGLDLTYITERIIAVSFPAGCSEESYLHNLQEVTRMLKSKHGDNYLVLNLSEKRYDLTKLNPKIMDVGWPELHAPPLDKMCTICKAQESWLNSNLQHVVVIHCRGGKGRIGVVISSYMHFTNVSASADQALDRFAMKKFYDDKVSALMQPSQKRYVQFLSGLLSGSVKMNASPLFLHFVILHGTPNFDTGGVCRPFLKLYQAMQPVYTSGIYNVGPENPSRICIVIEPAQLLKGDVMVKCYHKKYRSATRDVIFRLQFHTGAVQGYGLVFGKEDLDNASKDDRFPDYGKVELVFSATPEKIQGSEHLYNDHGVIVDYNTTDPLIRWDSYENLSADGEVLHTQGPVDGSLYAKVRKKSSSDPGIPGGPQAIPATNSPDHSDHTLSVSSDSGHSTASARTDKTEERLAPGTRRGLSAQEKAELDQLLSGFGLEDPGSSLKEMTDARSKYSGTRHVVPAQVHVNGDAALKDRETDILDDEMPHHDLHSVDSLGTLSSSEGPQSAHLGPFTCHKSSQNSLLSDGFGSNVGEDPQGTLVPDLGLGMDGPYERERTFGSREPKQPQPLLRKPSVSAQMQAYGQSSYSTQTWVRQQQMVVAHQYSFAPDGEARLVSRCPADNPGLVQAQPRVPLTPTRGTSSRVAVQRGVGSGPHPPDTQQPSPSKAFKPRFPGDQVVNGAGPELSTGPSPGSPTLDIDQSIEQLNRLILELDPTFEPIPTHMNALGSQANGSVSPDSVGGGLRASSRLPDTGEGPSRATGRQGSSAEQPLGGRLRKLSLGQYDNDAGGQLPFSKCAWGKAGVDYAPNLPPFPSPADVKETMTPGYPQDLDIIDGRILSSKESMCSTPAFPVSPETPYVKTALRHPPFSPPEPPLSSPASQHKGGREPRSCPETLTHAVGMSESPIGPKSTMLRADASSTPSFQQAFASSCTISSNGPGQRRESSSSAERQWVESSPKPMVSLLGSGRPTGSPLSAEFSGTRKDSPVLSCFPPSELQAPFHSHELSLAEPPDSLAPPSSQAFLGFGTAPVGSGLPPEEDLGALLANSHGASPTPSIPLTATGAADNGFLSHNFLTVAPGHSSHHSPGLQGQGVTLPGQPPLPEKKRASEGDRSLGSVSPSSSGFSSPHSGSTISIPFPNVLPDFSKASEAASPLPDSPGDKLVIVKFVQDTSKFWYKADISREQAIAMLKDKEPGSFIVRDSHSFRGAYGLAMKVATPPPSVLQLNKKAGDLANELVRHFLIECTPKGVRLKGCSNEPYFGSLTALVCQHSITPLALPCKLLIPERDPLEEIAESSPQTAANSAAELLKQGAACNVWYLNSVEMESLTGHQAIQKALSITLVQEPPPVSTVVHFKVSAQGITLTDNQRKLFFRRHYPVNSVIFCALDPQDRKWIKDGPSSKVFGFVARKQGSATDNVCHLFAEHDPEQPASAIVNFVSKVMIGSPKKV | 1.39 | 0.45 | 3.12
ARHGEF7 (protein, UniProt Q14155 1-803, looked up) Rho guanine nucleotide …: MNSAEQTVTWLITLGVLESPKKTISDPEGFLQASLKDGVVLCRLLERLLPGTIEKVYPEPRSESECLSNIREFLRGCGASLRLELLFPPSQPPQHLVTTILLSASTFDANDLYQGQNFNKVLSSLVTLNKVTADIGLGSDSVCARPSSHRIKSFDSLGSQSLHTRTSKLFQGQYRSLDMTDNSNNQLVVRAKFNFQQTNEDELSFSKGDVIHVTRVEEGGWWEGTLNGRTGWFPSNYVREVKASEKPVSPKSGTLKSPPKGFDTTAINKSYYNVVLQNILETENEYSKELQTVLSTYLRPLQTSEKLSSANISYLMGNLEEICSFQQMLVQSLEECTKLPEAQQRVGGCFLNLMPQMKTLYLTYCANHPSAVNVLTEHSEELGEFMETKGASSPGILVLTTGLSKPFMRLDKYPTLLKELERHMEDYHTDRQDIQKSMAAFKNLSAQCQEVRKRKELELQILTEAIRNWEGDDIKTLGNVTYMSQVLIQCAGSEEKNERYLLLFPNVLLMLSASPRMSGFIYQGKLPTTGMTITKLEDSENHRNAFEISGSMIERILVSCNNQQDLQEWVEHLQKQTKVTSVGNPTIKPHSVPSHTLPSHPVTPSSKHADSKPAPLTPAYHTLPHPSHHGTPHTTINWGPLEPPKTPKPWSLSCLRPAPPLRPSAALCYKEDLSKSPKTMKKLLPKRKPERKPSDEEFASRKSTAALEEDAQILKVIEAYCTSAKTRQTLNSTWQGTDLMHNHVLADDDQPSLDSLGRRSSLSRLEPSDLSEDSDYDSIWTAHSYRMGSTSRKSCCSYISHQN | 1.24 | 0.45 | 2.76
